# According to publication PMC6386588 (Molecular cell, 2019):
# Target: H-Ras protein: His tagged: human wild type (MST) (human, UniProt P01112 1-189)
# Test: MST
# H-Ras protein: His tagged: human wild type (MST), sequence (P01112 whole entry): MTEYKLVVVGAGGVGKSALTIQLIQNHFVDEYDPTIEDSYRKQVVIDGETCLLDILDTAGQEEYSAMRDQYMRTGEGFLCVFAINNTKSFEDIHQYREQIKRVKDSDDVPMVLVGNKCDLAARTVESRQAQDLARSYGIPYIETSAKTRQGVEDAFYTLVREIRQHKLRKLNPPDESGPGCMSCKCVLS
binder,measurement,value
"FHH:MAPKAP1^RBD (AA279-353) (domain or fragment, UniProt Q9BPZ7 279-353, looked up, RED-tris-NTA dye on the His tag (Monolith His-Tag Labeling Kit)) LFVRINAAHGFSLIQVDNTKVTMKEILLKAVKRRKGSQKVSGPQYRLEKQSEPNVAVDLDSTLESQSAWEFCLVR",binding result,binds
